This is an account of results in paper PMC4245986 (Biochemistry, 2014).

Where two headings read alike, the source gives them in different places. Ends that are not written are not given here. rhodamine = not defined here

The target in assay [1] is T1, GST-SH3 domain (derived from BIN1) (human).
T1 sequence (O00499 whole entry, looked up): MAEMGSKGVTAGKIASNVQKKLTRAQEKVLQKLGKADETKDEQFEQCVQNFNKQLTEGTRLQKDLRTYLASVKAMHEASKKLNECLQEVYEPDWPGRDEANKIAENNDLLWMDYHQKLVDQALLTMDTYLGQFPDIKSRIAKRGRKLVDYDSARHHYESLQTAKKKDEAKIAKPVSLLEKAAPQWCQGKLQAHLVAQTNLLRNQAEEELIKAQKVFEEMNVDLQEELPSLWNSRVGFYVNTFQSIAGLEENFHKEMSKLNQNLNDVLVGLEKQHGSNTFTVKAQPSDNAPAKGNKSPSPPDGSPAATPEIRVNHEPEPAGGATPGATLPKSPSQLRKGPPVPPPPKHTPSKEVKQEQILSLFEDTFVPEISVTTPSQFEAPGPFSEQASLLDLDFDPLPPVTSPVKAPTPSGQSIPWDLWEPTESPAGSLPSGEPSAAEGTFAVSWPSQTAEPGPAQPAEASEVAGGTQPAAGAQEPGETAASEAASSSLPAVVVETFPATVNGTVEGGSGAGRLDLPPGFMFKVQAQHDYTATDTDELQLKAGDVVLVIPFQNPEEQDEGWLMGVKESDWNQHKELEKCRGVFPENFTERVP
As to the kind of experiment: ITC.

For assay [2] the target is unchanged. Briefly: ITC. The source holds these as a separate data set. (Isothermal titration calorimetry measures the heat released or taken up as one component is titrated into another.)
The target is the same in assay [3]. Briefly: ITC. This is another data set of the same source.
In another assay the target is T2, Alexa488 labeled BIN1-FL (human, UniProt O00499-8 1-454, Alexa 488 C5-maleimide on endogenous cysteine residues).
T2 sequence (looked up): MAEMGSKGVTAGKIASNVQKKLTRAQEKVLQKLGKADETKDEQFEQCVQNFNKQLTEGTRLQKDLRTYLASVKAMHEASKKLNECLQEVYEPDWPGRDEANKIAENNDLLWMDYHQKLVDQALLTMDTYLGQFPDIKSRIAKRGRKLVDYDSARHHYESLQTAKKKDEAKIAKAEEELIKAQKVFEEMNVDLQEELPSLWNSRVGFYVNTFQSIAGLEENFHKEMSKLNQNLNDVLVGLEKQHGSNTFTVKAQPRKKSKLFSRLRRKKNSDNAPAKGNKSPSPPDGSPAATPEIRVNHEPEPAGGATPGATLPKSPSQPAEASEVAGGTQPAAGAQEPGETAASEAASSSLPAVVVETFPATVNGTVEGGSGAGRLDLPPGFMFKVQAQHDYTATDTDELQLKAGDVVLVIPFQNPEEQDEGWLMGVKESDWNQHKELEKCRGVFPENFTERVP
As to the kind of experiment: recruitment of fluorescent peptide to protein-coated giant vesicles.

The target of assay [4] is T1, GST-SH3 domain (derived from BIN1) (human). Briefly: ITC. This is another data set of the same source.

On to RKKSKLFSRLRRKKN [exon10 peptide], for which the stoichiometry N in assay [1] and in assay [2] was 1 in each case. In addition, the Kd (in general, the concentration at which binding is half-saturated) came to 3.9 µM in assay [2] and 11.3 µM in assay [3].

With rhodamine-PPQIPSRPVRIPPGI (reading uncertain) [rhodamine-labeled PRD peptide], the binding result with Alexa488 labeled BIN1-FL is given as “binds”.

Turning to PPQIPSRPVRIPPGI [dynamin 2-derived proline-rich domain peptide], the dissociation constant (Kd) in assay [4] stood at 68.3 µM; in assay [2], 13.7 µM.
